The subject of this series is Escherichia coli TOP10. The experiment in a line: shrunken log2 fold change of peptide-encoding DNA abundance (4.5 h post-induction vs induction); higher = less antimicrobial activity (less host growth inhibition). Conditions: time post-induction: 4.5 h; library: site-saturation at positions 5, 18, 19, 20.

The record followed here is the supplement of paper PMC9112550, “Optimization of the antimicrobial peptide Bac7 by deep mutational scanning” (BMC Biology, 2022).
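Note: peptides expressed intracellularly from a pBAD plasmid library in pooled LB shake-flask culture, induced with 0.3% L-arabinose, DNA abundance read by NGS, three biological replicates, DESeq2 with apeglm shrinkage.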

With RRIRDRPPRLPRPRPRPPMMPRP, the “shrunken log2 fold change” value is -0.0737.
On to RRIRWRPPRLPRPRPRPYPEPRP, for which the “shrunken log2 fold change” value was -0.224.
Next, RRIRWRPPRLPRPRPRPHRYPRP: -0.15.
Next, RRIRCRPPRLPRPRPRPVNKPRP: -0.196.
Next, RRIRTRPPRLPRPRPRPFYYPRP: -0.55; RRIRRRPPRLPRPRPRPPPHPRP: 0.968.
Turning to RRIRPRPPRLPRPRPRPSTIPRP, the “shrunken log2 fold change” value is -0.552.
As to RRIRGRPPRLPRPRPRPHQAPRP, the “shrunken log2 fold change” value is 0.354.
Next, RRIRARPPRLPRPRPRPVIAPRP: 0.161; RRIRHRPPRLPRPRPRPNANPRP: -0.801.
On to RRIRVRPPRLPRPRPRPDYKPRP, for which the “shrunken log2 fold change” value stood at 0.105.
As to RRIRDRPPRLPRPRPRPEPKPRP, the “shrunken log2 fold change” value stood at 1.4.
Next, RRIRRRPPRLPRPRPRPQYQPRP: -0.207; RRIRNRPPRLPRPRPRPSNYPRP: -0.791.
Consider RRIRKRPPRLPRPRPRPCYPPRP, for which the “shrunken log2 fold change” value is -0.446.
On to RRIRYRPPRLPRPRPRPFAFPRP, for which the “shrunken log2 fold change” value is -1.05.
Next, RRIRARPPRLPRPRPRPCGRPRP: 0.526; RRIRARPPRLPRPRPRPVCMPRP: 0.226; RRIRERPPRLPRPRPRPGNGPRP: -0.0693.
As for RRIRGRPPRLPRPRPRPHIPPRP, the “shrunken log2 fold change” value is -0.101.
With RRIRARPPRLPRPRPRPAHAPRP, the “shrunken log2 fold change” value was 1.07.
Next, RRIRTRPPRLPRPRPRPICKPRP: -0.0914; RRIRDRPPRLPRPRPRPLAAPRP: 0.913.
Next, RRIRVRPPRLPRPRPRPHWYPRP: -0.463.
RRIRCRPPRLPRPRPRPIPNPRP: the “shrunken log2 fold change” value came to 0.0105.
Next, RRIRDRPPRLPRPRPRPLFDPRP: 0.393; RRIRIRPPRLPRPRPRPFNSPRP: -0.384.
On to RRIRGRPPRLPRPRPRPELSPRP, for which the “shrunken log2 fold change” value turned out to be 0.169.
As for RRIRNRPPRLPRPRPRPGRTPRP, the “shrunken log2 fold change” value was found to be 0.153.
For RRIRNRPPRLPRPRPRPCNRPRP, the “shrunken log2 fold change” value is -0.00992.
On to RRIRVRPPRLPRPRPRPFAWPRP, for which the “shrunken log2 fold change” value amounted to 0.384.
Next, RRIRPRPPRLPRPRPRPPNNPRP: 0.414.
Next, RRIRYRPPRLPRPRPRPSADPRP: -0.18; RRIRDRPPRLPRPRPRPHKFPRP: -0.122.
For RRIRTRPPRLPRPRPRPGLIPRP, the “shrunken log2 fold change” value was -1.04.
Then RRIRHRPPRLPRPRPRPQYAPRP, with -0.00149.
Next, RRIRKRPPRLPRPRPRPIPCPRP: 0.276; RRIRPRPPRLPRPRPRPMWVPRP: -0.138; RRIRCRPPRLPRPRPRPDEMPRP: -0.0197.
Next, RRIRGRPPRLPRPRPRPGLLPRP: 0.791; RRIRRRPPRLPRPRPRPDKMPRP: -0.122.
As for RRIRLRPPRLPRPRPRPPTKPRP, the “shrunken log2 fold change” value was 0.288.
Then RRIRCRPPRLPRPRPRPDNVPRP, with -0.0772; and RRIRPRPPRLPRPRPRPFTEPRP, with -0.649.
Next, RRIRERPPRLPRPRPRPCRVPRP: -0.25; RRIRIRPPRLPRPRPRPYMEPRP: -0.677; RRIRTRPPRLPRPRPRPQRAPRP: 0.265.
Next, RRIRCRPPRLPRPRPRPDLWPRP: 0.134; RRIRCRPPRLPRPRPRPETLPRP: -0.193; RRIRIRPPRLPRPRPRPYKVPRP: -0.385.
On to RRIRKRPPRLPRPRPRPWTKPRP, for which the “shrunken log2 fold change” value was -0.0423.
With RRIRGRPPRLPRPRPRPHMQPRP, the “shrunken log2 fold change” value is -0.121.
Next, RRIRFRPPRLPRPRPRPECPPRP: 0.0177; RRIRSRPPRLPRPRPRPTPMPRP: 0.61.
RRIRLRPPRLPRPRPRPSYVPRP: the “shrunken log2 fold change” value was -0.13.
In the case of RRIRTRPPRLPRPRPRPEIMPRP, the “shrunken log2 fold change” value was -0.468.
Next, RRIRERPPRLPRPRPRPRYHPRP: -0.0105; RRIRLRPPRLPRPRPRPNKGPRP: -0.254.
Then RRIRPRPPRLPRPRPRPDSDPRP, with 0.0303.
Regarding RRIRGRPPRLPRPRPRPQSKPRP, the “shrunken log2 fold change” value worked out at 0.348.
With RRIRSRPPRLPRPRPRPMQAPRP, the “shrunken log2 fold change” value stood at 0.0325.
Consider RRIRFRPPRLPRPRPRPMHWPRP, for which the “shrunken log2 fold change” value stood at 0.325.
With RRIRKRPPRLPRPRPRPYNGPRP, the “shrunken log2 fold change” value is -0.00151.
Next, RRIRYRPPRLPRPRPRPQICPRP: -0.00591.
Turning to RRIRQRPPRLPRPRPRPCDSPRP, the “shrunken log2 fold change” value is -0.0167.
For RRIRTRPPRLPRPRPRPGKNPRP, the “shrunken log2 fold change” value is -0.24.
Next, RRIRDRPPRLPRPRPRPFSAPRP: -0.36; RRIRQRPPRLPRPRPRPWVSPRP: -0.0689; RRIRVRPPRLPRPRPRPHNRPRP: -0.241.
Take RRIRCRPPRLPRPRPRPLNTPRP: the “shrunken log2 fold change” value was -0.343.
On to RRIRARPPRLPRPRPRPDWVPRP, for which the “shrunken log2 fold change” value stood at 0.517.
Then RRIRERPPRLPRPRPRPHTPPRP, with 0.229; and RRIRKRPPRLPRPRPRPERGPRP, with 0.443; and RRIRFRPPRLPRPRPRPCLDPRP, with -0.35.
Next, RRIRRRPPRLPRPRPRPGASPRP: 0.665.
On to RRIRERPPRLPRPRPRPNHCPRP, for which the “shrunken log2 fold change” value was -0.0763.
On to RRIRSRPPRLPRPRPRPKTQPRP, for which the “shrunken log2 fold change” value was -0.0511.
Then RRIRVRPPRLPRPRPRPVSDPRP, with -0.0859; and RRIRFRPPRLPRPRPRPEYVPRP, with -0.15; and RRIRYRPPRLPRPRPRPFIPPRP, with -0.296.
Regarding RRIRARPPRLPRPRPRPCQVPRP, the “shrunken log2 fold change” value is -0.47.
Take RRIRARPPRLPRPRPRPNWQPRP: the “shrunken log2 fold change” value is -0.0264.
Next, RRIRQRPPRLPRPRPRPEAIPRP: -0.0935.
Then RRIRARPPRLPRPRPRPYGIPRP, with -0.00196; and RRIRGRPPRLPRPRPRPSIKPRP, with 0.47; and RRIRTRPPRLPRPRPRPAHHPRP, with -0.0336.
With RRIRARPPRLPRPRPRPTVNPRP, the “shrunken log2 fold change” value was -0.0152.
Next, RRIRDRPPRLPRPRPRPTGRPRP: 0.134; RRIRPRPPRLPRPRPRPFCAPRP: 0.0563; RRIRPRPPRLPRPRPRPGHVPRP: 0.564.
With RRIRQRPPRLPRPRPRPNTQPRP, the “shrunken log2 fold change” value was -0.621.
Regarding RRIRVRPPRLPRPRPRPMVNPRP, the “shrunken log2 fold change” value is -0.158.
Then RRIRHRPPRLPRPRPRPPIYPRP, with -0.204; and RRIRFRPPRLPRPRPRPYTLPRP, with -1.21; and RRIRARPPRLPRPRPRPGYWPRP, with 0.363.
Next, RRIRKRPPRLPRPRPRPEARPRP: 0.429.
Regarding RRIRMRPPRLPRPRPRPCSAPRP, the “shrunken log2 fold change” value is 1.24.
Then RRIRCRPPRLPRPRPRPKRHPRP, with 0.341.
As to RRIRARPPRLPRPRPRPAIEPRP, the “shrunken log2 fold change” value was found to be 0.396.
Then RRIRWRPPRLPRPRPRPEPCPRP, with 0.157; and RRIRRRPPRLPRPRPRPEFSPRP, with 0.0744.
For RRIRSRPPRLPRPRPRPMKWPRP, the “shrunken log2 fold change” value is 0.053.
As for RRIRMRPPRLPRPRPRPCPRPRP, the “shrunken log2 fold change” value amounted to 0.167.
Next, RRIRFRPPRLPRPRPRPRRPPRP: 0.668.
Next, RRIRPRPPRLPRPRPRPTMWPRP: 0.457; RRIRWRPPRLPRPRPRPSFWPRP: 0.372.
Then RRIRPRPPRLPRPRPRPEPEPRP, with 0.433.
Consider RRIRQRPPRLPRPRPRPNQTPRP, for which the “shrunken log2 fold change” value was -0.0346.
For the sequence RRIRSRPPRLPRPRPRPIWNPRP, the “shrunken log2 fold change” value was -0.316.
Turning to RRIRNRPPRLPRPRPRPIINPRP, the “shrunken log2 fold change” value was -0.265.
Turning to RRIRYRPPRLPRPRPRPFCSPRP, the “shrunken log2 fold change” value is -0.425.
Turning to RRIRCRPPRLPRPRPRPSYFPRP, the “shrunken log2 fold change” value is -0.193.
For the sequence RRIRMRPPRLPRPRPRPSPHPRP, the “shrunken log2 fold change” value is 0.18.
Turning to RRIRTRPPRLPRPRPRPLDAPRP, the “shrunken log2 fold change” value was -0.00457.
With RRIRPRPPRLPRPRPRPWGTPRP, the “shrunken log2 fold change” value is -0.0725.
Regarding RRIRARPPRLPRPRPRPRWIPRP, the “shrunken log2 fold change” value was determined as 0.239.
Turning to RRIRIRPPRLPRPRPRPCDHPRP, the “shrunken log2 fold change” value was -0.752.
Then RRIRHRPPRLPRPRPRPAADPRP, with 0.274; and RRIRHRPPRLPRPRPRPYPVPRP, with -0.00992; and RRIRGRPPRLPRPRPRPNKHPRP, with 0.124.
Then RRIRPRPPRLPRPRPRPCKEPRP, with -0.0274.
Then RRIRKRPPRLPRPRPRPTKTPRP, with 0.14; and RRIRCRPPRLPRPRPRPIIPPRP, with -0.645.
For RRIRKRPPRLPRPRPRPGWSPRP, the “shrunken log2 fold change” value was found to be 3.
Next, RRIRKRPPRLPRPRPRPKTLPRP: 0.239.
